Measured values as given in US20200199233A1.
Where “and” joins values, the source holds several entries; their conditions need not be identical. Identical values can stand only once. Values belong to the substance of their own block, whether it stands above or below them.

What was measured:
[1] = biological target: human MUC16 on cells (OVCAR-3, PEO1, 3T3/hβ2M/HLA-A2/NYESO1p/hMUC16) (human); assay: flow cytometry ('FACS binding', MFI_PE) on cells, the same assay as the other two curves. The control's curve is flat at baseline, so this is a fit value without a response. The unit is taken from the axis, Log10 (M).
[2] = biological target: human MUC16 on cells (OVCAR-3, PEO1, 3T3/hβ2M/HLA-A2/NYESO1p/hMUC16) (human); assay: flow cytometry ('FACS binding', MFI_PE) on cells. The sheet names no cell line; the legend of FIGS. 2A-2I names PEO1 (endogenous MUC16). The unit is taken from the axis, Log10 (M).
[3] = biological target: human MUC16 on cells (OVCAR-3, PEO1, 3T3/hβ2M/HLA-A2/NYESO1p/hMUC16) (human); assay: cell-based or functional assay
mCD28.mmh (mouse) = assay: SPR (Biacore), 37 C, antibody captured by anti-human Fc, mCD28.mmh injected
Sequence of mCD28.mmh (mouse) (chain, as listed by the source limits assumed): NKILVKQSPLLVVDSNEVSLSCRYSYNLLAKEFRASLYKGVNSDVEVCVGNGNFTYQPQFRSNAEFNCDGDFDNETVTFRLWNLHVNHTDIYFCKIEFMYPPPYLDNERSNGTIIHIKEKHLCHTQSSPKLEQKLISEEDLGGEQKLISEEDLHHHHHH

hMUC16.mmh (human) = assay: SPR (Biacore), 37 C, antibody captured by anti-human Fc, hMUC16.mmh injected
Sequence of hMUC16.mmh (human) (chain, as listed by the source limits assumed): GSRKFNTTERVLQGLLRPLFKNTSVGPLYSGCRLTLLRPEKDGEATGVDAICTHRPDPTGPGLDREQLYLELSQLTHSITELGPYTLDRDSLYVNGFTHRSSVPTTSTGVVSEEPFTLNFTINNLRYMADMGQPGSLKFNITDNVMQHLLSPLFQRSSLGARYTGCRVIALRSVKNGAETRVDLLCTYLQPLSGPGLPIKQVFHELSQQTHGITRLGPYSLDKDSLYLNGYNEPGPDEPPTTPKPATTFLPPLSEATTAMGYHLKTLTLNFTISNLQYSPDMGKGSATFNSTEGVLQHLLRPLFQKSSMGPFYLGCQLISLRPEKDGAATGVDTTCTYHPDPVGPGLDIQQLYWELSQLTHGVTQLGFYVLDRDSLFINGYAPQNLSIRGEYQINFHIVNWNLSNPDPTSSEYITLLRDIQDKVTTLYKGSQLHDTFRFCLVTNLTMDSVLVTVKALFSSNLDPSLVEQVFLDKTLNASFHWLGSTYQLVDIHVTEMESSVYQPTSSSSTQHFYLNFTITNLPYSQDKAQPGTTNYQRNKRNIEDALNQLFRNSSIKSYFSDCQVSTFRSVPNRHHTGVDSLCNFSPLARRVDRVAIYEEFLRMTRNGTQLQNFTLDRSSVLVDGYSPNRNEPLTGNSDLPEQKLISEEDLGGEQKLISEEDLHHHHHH

EC50 [1]: 2.27 nM
Substance: CD3-BINDING CONTROL (bispecific antibody)

EC50 [2]: 1.84 nM
Substance: REGN4018 (bispecific antibody)
PEO1 Kill EC50 [M], human PBMCs, MUC16xCD3 as single agent [3]: 1.27e-10 M
PEO1 Kill EC50 [M], human PBMCs, MUC16xCD3 titrated in the presence of bs24963D [3]: 1.07e-10 M and 5.31e-11 M
PEO1 min. % viability, human PBMCs, MUC16xCD3 as single agent [3]: 57%
PEO1 min. % viability, human PBMCs, MUC16xCD3 titrated in the presence of bs24963D [3]: 9.8%
PEO1 min. % viability, human PBMCs, MUC16xCD3 titrated in the presence of bs32897D [3]: 17.7%

Kd (mCD28.mmh (mouse)): 3.76 nM
T½ (mCD28.mmh (mouse)): 2.48 h
koff (mCD28.mmh (mouse)): 7.77e-05 s⁻¹
kon (mCD28.mmh (mouse)): 20700 M⁻¹ s⁻¹
90 nM hMUC16.mmh Bind (RU) (hMUC16.mmh (human)): 513 RU
Kd (hMUC16.mmh (human)): 0.749 nM
T½ (hMUC16.mmh (human)): 0.408 h
koff (hMUC16.mmh (human)): 0.000472 s⁻¹
kon (hMUC16.mmh (human)): 629000 M⁻¹ s⁻¹
Substance: REGN4615 (bispecific antibody)
